The target in test [1] is MotA1 from Paenibacillus sp. TCA20 (Paenibacillus sp. TCA20). The test is described as follows: cryo-EM structure; co-expressed chimeric MotA1/MotB1-His6 complex, solubilised in LMNG, purified by Ni-affinity and SEC, reconstituted into peptidisc; 20 mM Tris-HCl pH 8.0, 100 mM NaCl; single particle analysis, three classes (3.3, 3.3 and 3.5 Å).
The target in test [2] is chimeric MotB1 (N-terminal transmembrane domain of Paenibacillus sp. TCA20 MotB1 joined to the C-terminal periplasmic domain of E. coli MotB) (Paenibacillus sp. TCA20 | E. coli) (UniProt P0AF06). The test is described as above.

In general, stoichiometry N refers to the number of molecules, sites or subunits per partner or assembly.

Regarding “MotA1 from Paenibacillus sp. TCA20 (natural protein)”, the stoichiometry N in test [1] is 5.

Consider “chimeric MotB1 (N-terminal transmembrane domain of Paenibacillus sp. TCA20 MotB1 joined to the C-terminal periplasmic domain of E. coli MotB) (from UniProt P0AF06 104-302)”, for which the stoichiometry N in test [2] turned out to be 2.

The values are drawn from paper PMC11940548.
